Measured values published in PMC4157451 (Acta Crystallographica Section D: Biological Crystallography, 2014).
Numbering of substitutions follows the chain as printed. Numbers in names are those of the source.

B1: PvuRts1I Y210F mutant (enzyme, UniProt Q52612 1-293, looked up)
chain: MSKTDYILRALSKISHKRWEHYIINRVVHTLDDPDIEFVCQQCIRKEGHLGKIYLADLLFPQLNLYLEIDEAHHDSNDARKADAVRRLDIVEATGFQEERIPASNITLSEVNKLVDEFVRLVKDKKEELENQGLFFRWDYDERYSAKKHINTGYMAVGPNSVFRYHRDALQCFGYRREGHHQSGGWALPAEVAQSIGLTGRVMVWFPRLFEAGEWKNALSADGNKITEQSLNATRNYQETWDYRIVMAHSRDELNRTLYRFLGVFAIDVDKSSDEVKVFSRVYSRVNVYRSQN
notes: PvuRts1I with a point mutation; also called Y210F variant; source: E. coli Rosetta2 (DE3), purified under identical conditions to wild-type PvuRts1I
B2: PvuRts1I N217A mutant (enzyme, UniProt Q52612 1-293, looked up)
chain: B1 chain with F210Y, N217A
notes: PvuRts1I with a point mutation; source: E. coli Rosetta2 (DE3), purified under identical conditions to wild-type PvuRts1I
B3: PvuRts1I A212N mutant (enzyme, UniProt Q52612 1-293, looked up)
chain: B1 chain with F210Y, A212N
notes: as for B2
B4: PvuRts1I N217D mutant (enzyme, UniProt Q52612 1-293, looked up)
chain: B1 chain with F210Y, N217D
notes: as for B2
B5: PvuRts1I W215A mutant (enzyme, UniProt Q52612 1-293, looked up)
chain: B1 chain with F210Y, W215A
notes: as for B2
B6: PvuRts1I N217K mutant (enzyme, UniProt Q52612 1-293, looked up)
chain: B1 chain with F210Y, N217K
notes: as for B2
B7: PvuRts1I E228K mutant (enzyme, UniProt Q52612 1-293, looked up)
chain: B1 chain with F210Y, E228K
notes: as for B2

Biological target: the molecule itself
Experiment: not stated; assembly of the purified point mutants in solution (Supplementary Fig. S3)

Protein	stoichiometry N
B1	2
B2	2
B3	2
B4	2
B5	2
B6	2
B7	2
